Patent US20220411536A1 (NUMAB THERAPEUTICS, published 2022)
Blank lines part the entries; values can stand above or below the binder they belong to.

Tests used:
[1] = target: T1, human PD-L1 expressed on cells (CHO-PD-L1, HCC1954, HCC827) (human, UniProt Q9NZQ7 19-290); assay: flow cytometry with human SA, inhibition of PD-1 binding to HCC1954 cells
T1 construct: whole, on cells; also called hPD-L1; PD-L1 expressing cells

[2] = target: T1, human PD-L1 expressed on cells …; assay: flow cytometry competition in presence of human SA: binding of biotinylated PD-1 to HCC1954 cells (Her2+++, PD-L1); blocked ligand PD-1 [HCC1954]
[3] = target: CD137 on transgenic NF-kB Jurkat reporter cells (Homo sapiens (Human), UniProt Q07011 24-255); assay: cell-based or functional assay
[4] = target: T2, mouse serum albumin (mouse, UniProt P07724 25-608); assay: SPR, immobilised MSA, pH 5.5
T2 construct: also called MSA; mouse SA

[5] = target: T3, CD3e on Jurkat PD-1 NFAT reporter T cells or on T cells of human PBMCs (human, UniProt P07766 23-207); assay: cell-based or functional assay
[6] = target: T4, recombinant human CD3E ECD (SinoBiological, cat. 10977-H08H) (human, UniProt P07766 23-126); assay: SPR, immobilised CD3e ECD, two-state model
T4 construct: extracellular domain; bought protein; also called CD3s

[7] = target: T5, recombinant human IL-23R (custom-made by Trenzyme) (human, UniProt Q5VWK5 24-355); assay: SPR, immobilised IL-23R
T5 sequence (looked up): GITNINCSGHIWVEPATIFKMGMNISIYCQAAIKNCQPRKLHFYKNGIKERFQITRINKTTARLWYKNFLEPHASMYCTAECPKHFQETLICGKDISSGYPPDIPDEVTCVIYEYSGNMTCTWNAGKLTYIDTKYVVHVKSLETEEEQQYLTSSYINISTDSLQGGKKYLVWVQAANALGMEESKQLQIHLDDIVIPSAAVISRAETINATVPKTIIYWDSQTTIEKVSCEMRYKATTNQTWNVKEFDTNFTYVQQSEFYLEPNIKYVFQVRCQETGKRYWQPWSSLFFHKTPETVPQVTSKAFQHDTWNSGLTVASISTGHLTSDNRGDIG

[8] = target: T6, recombinant human Her2 ECD (SinoBiological, cat. 10004-HCCH) (human, UniProt P04626 23-652); assay: SPR, immobilised Her2 ECD
T6 construct: extracellular domain; bought protein

[9] = target: T4, recombinant human CD3E ECD …; assay: SPR, immobilised CD3e ECD, two-state model (ka1)
[10] = target: T7, Fc-tagged human PD-L1 extracellular domain (SinoBiological, cat. 10084-H02H) (human, UniProt Q9NZQ7 19-238); assay: SPR, captured Fc-PD-L1 ECD
T7 construct: extracellular domain; also called hPD-L1; not shown: Fc tag of the bought protein

[11] = target: T8, human serum albumin (human, UniProt P02768 25-609); assay: SPR, immobilised HSA, pH 5.5
T8 construct: also called HSA; human SA

[12] = target: T4, recombinant human CD3E ECD …; assay: SPR, immobilised CD3e ECD, two-state model (kd1)
[13] = target: T4, recombinant human CD3E ECD …; assay: SPR, immobilised CD3e ECD, two-state model (kd1); kd1, first step of the two-state fit
[14] = target: T4, recombinant human CD3E ECD …; assay: SPR, immobilised CD3e ECD, two-state model; overall KD of the two-state fit
[15] = target: T4, recombinant human CD3E ECD …; assay: SPR, immobilised CD3e ECD, two-state model (ka1); ka1, first step of the two-state fit
[16] = target: T3, CD3e on Jurkat PD-1 NFAT reporter T …; assay: cell-based or functional assay; remark: listed apart in the source

T4 sequence (P07766 23-126): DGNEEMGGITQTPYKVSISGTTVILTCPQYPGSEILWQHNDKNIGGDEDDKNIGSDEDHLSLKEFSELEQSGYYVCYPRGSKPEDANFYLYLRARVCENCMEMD
T2 sequence (P07724 25-608 limits assumed): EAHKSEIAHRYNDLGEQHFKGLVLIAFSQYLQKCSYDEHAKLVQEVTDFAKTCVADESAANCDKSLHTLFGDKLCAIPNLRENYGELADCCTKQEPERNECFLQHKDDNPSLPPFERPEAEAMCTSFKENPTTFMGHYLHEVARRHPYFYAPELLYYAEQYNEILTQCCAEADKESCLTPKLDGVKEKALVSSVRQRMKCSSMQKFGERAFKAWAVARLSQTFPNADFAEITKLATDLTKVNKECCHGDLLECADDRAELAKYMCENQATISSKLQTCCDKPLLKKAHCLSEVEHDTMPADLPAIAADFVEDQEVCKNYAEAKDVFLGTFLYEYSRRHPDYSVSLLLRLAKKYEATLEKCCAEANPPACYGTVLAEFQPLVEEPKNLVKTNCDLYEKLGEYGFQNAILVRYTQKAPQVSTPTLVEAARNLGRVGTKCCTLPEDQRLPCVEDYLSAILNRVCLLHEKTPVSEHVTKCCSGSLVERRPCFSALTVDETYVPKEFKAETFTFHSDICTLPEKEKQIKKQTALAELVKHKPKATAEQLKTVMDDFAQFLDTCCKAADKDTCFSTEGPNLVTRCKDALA

IC50 [1]: 0.167 µg/mL | IC50 (read off the curve) [2]: ~2 nM | EC50, NFkB reporter gene assay, HCC827 cells [3]: 0.287 nM | EC50, NFkB reporter gene assay, HCC1954 cells [3]: 0.168 nM
B1: PRO1993 (multispecific antibody)
chain 1: DIQMTQSPSSLSASVGDRVTITCKASQDVSIGVAWYQQKPGKAPKLLIYSASYRYTGVPSRFSGSGSGTDFTLTISSLQPEDFATYYCQQYYIYPYTFGCGTKVTVLGGGGGSGGGGSGGGGSGGGGSEVQLVESGGGLVQPGGSLRLSCAASGFTFTDYTMDWVRQAPGKCLEWVADVNPNSGGSIYNQRFKGRFTLSVDRSKNTLYLQMNSLRAEDTAVYYCARNLGPSFYFDYWGQGTLVTVSSGGGGSGGGGSDVVMTQSPSSLSASVGDRVTITCQASQIISSRSAWYQQKPGQPPKLLIYQASKLASGVPSRFSGSGSGTDFTLTISSLQPEDFATYYCQCTYIDSNFGAFGTGTKLTVLGGGSGGSDIQMTQSPSSLSASVGDRVTITCQASQSISNRLAWYQQKPGKAPKLLIYSASTLASGVPSRFSGSGSGTDFTLTISSLQPEDFATYYCQSTYYGNDGNAFGCGTKVTVLG
chain 2: DIQMTQSPSSLSASVGDRVTITCQASQSINDYLAWYQQKPGKAPKLLIYKASTLASGVPSRFSGSGSGTDFTLTISSLQPEDFATYYCQAAYIITDIDNVFGTGTKVTVLGGGGGSGGGGSGGGGSGGGGSQVQLQESGPGLVKPSETLSLTCKVSGFSFSSGYDMCWIRQPPGKGLEWIGCVVAGSVDITYYASWAKGRVTISVDSSKNQFSLKLSSVTAADTAVYYCARKDAYSDAFNLWGQGTLVTVSSGGGGSGGGGSEVQLVESGGGLVQPGGSLRLSCAASGFSFSANYYPCWVRQAPGKCLEWIGCIYGGSSDITYDANWTKGRFTISRDNSKNTVYLQMNSLRAEDTAVYYCARSAWYSGWGGDLWGQGTLVTVSSGGGSGGGSEVQLVESGGGLVQPGGSLRLSCAASGFSFSSSYWICWVRQAPGKGLEWVGCVFTGDGTTYYASWAKGRFTISRDNSKNTVYLQMNSLRAEDTATYFCARPVSVYYYGMDLWGQGTLVTVSS

Kd [4]: 11.5 nM | koff [4]: 0.0011 s⁻¹ | kon [4]: 95800 M⁻¹ s⁻¹ | IC50, NFAT reporter, HCC1954 cells [5]: 2.71 nM | rel. max. activation vs PRO1497, NFAT reporter, HCC1954 cells [5]: 53% | KD1 [6]: 15.7 nM | Kd [6]: 7.95 nM | kd2 [6]: 0.00335 s⁻¹ | Kd [7]: 0.868 nM | koff [7]: 0.000493 s⁻¹ | kon [7]: 568000 M⁻¹ s⁻¹ | Kd [8]: 0.3 nM | koff [8]: 6.07e-05 s⁻¹ | kon [8]: 202000 M⁻¹ s⁻¹ | kon [9]: 315000 M⁻¹ s⁻¹ | binding result [10]: no binding | Kd [11]: 0.501 nM | koff [11]: 0.000123 s⁻¹ | kon [11]: 245000 M⁻¹ s⁻¹ | koff [12]: 0.00496 s⁻¹
B2: PRO1558 (multispecific antibody)
chain 1: DIQMTQSPSSLSASVGDRVTITCQASENIYSFLAWYQQKPGKAPKLLIYSASKLAAGVPSRFSGSGSGTDFTLTISSLQPEDFATYYCQQTNRYSNPDIYNVFGTGTKVTVLGGGGGSGGGGSGGGGSGGGGSEVQLVESGGGLVQPGGSLRLSCAASGIDFNSNYYMCWVRQAPGKGLEWIGCIYVGSHVNTYYANWAKGRFTISRDNSKNTVYLQMNSLRAEDTAVYYCATSGSSVLYFKFWGQGTLVTVSSGGGGSGGGGSDVVMTQSPSSLSASVGDRVTITCQASQIISSRSAWYQQKPGQPPKLLIYQASKLASGVPSRFSGSGSGTDFTLTISSLQPEDFATYYCQCTYIDSNFGAFGCGTKLTVLGGGSGGSDIQMTQSPSSLSASVGDRVTITCQSSQSVFSNNYLAWFQQKPGQSPKRLIYSASTLASGVPSRFSGSGSGTDFTLTISSLQPEDFATYYCLGSYACSSADCYVFGTGTKVTVLG
chain 2: not shown

koff [13]: 0.00529 s⁻¹ | Kd [4]: 11.2 nM | koff [4]: 0.00107 s⁻¹ | kon [4]: 95600 M⁻¹ s⁻¹ | IC50, NFAT reporter, HCC1954 cells [5]: 0.391 nM | IC50, NFAT reporter, HCC1954 cells, + PRO1434 [5]: 0.671 nM | IC50, NFAT reporter, HCC1954 cells, + nivolumab [5]: 0.319 nM | rel. max. activation vs PRO1497, NFAT reporter, HCC1954 cells [5]: 82% | KD1 [6]: 18.7 nM | kd2 [6]: 0.00356 s⁻¹ | Kd [7]: 0.931 nM | koff [7]: 0.000514 s⁻¹ | kon [7]: 552000 M⁻¹ s⁻¹ | Kd [14]: 8.43 nM | Kd [8]: 0.318 nM | koff [8]: 6.35e-05 s⁻¹ | kon [8]: 200000 M⁻¹ s⁻¹ | kon [15]: 283000 M⁻¹ s⁻¹ | binding result [10]: no binding | Kd [11]: 0.498 nM | koff [11]: 0.00012 s⁻¹ | kon [11]: 240000 M⁻¹ s⁻¹
B3: PRO1557 (multispecific antibody)
chain 1: not shown
chain 2: DIQMTQSPSSLSASVGDRVTITCQASENIYSFLAWYQQKPGKAPKLLIYSASKLAAGVPSRFSGSGSGTDFTLTISSLQPEDFATYYCQQTNRYSNPDIYNVFGTGTKVTVLGGGGGSGGGGSGGGGSGGGGSEVQLVESGGGLVQPGGSLRLSCAASGIDFNSNYYMCWVRQAPGKGLEWIGCIYVGSHVNTYYANWAKGRFTISRDNSKNTVYLQMNSLRAEDTAVYYCATSGSSVLYFKFWGQGTLVTVSSGGGGSGGGGSEVQLVESGGGLVQPGGSLRLSCAASGFSLSSYDMSWVRQAPGKGLAWIGASYASGPTYYASWAKGRFTISRDNSKNTVYLQMNSLRAEDTATYFCARGGWTGTSHSNIWGQGTLVTVSSGGGSGGGSEVQLVESGGGLVQPGGSLRLSCAASGFSFSSSYWICWVRQAPGKCLEWVGCVFTGDGTTYYASWAKGRFTISRDNSKNTVYLQMNSLRAEDTATYFCARPVSVYYYGMDLWGQGTLVTVSS
target cell killing IC50, 16 h, HCC1954 cells [16]: 0.00279 nM | target cell killing IC50, 16 h, MCF-7 cells [16]: 0.0181 nM
